Measurements published in patent US20050288217A1 (UNIVERSITY OF NORTH CAROLINA AT CHAPEL HILL, published 2005).

T1: β3 integrin mutant in which the identical region of the β1 integrin was substituted for the 8 amino acid … (UniProt P05106 27-788)
T1 construct: whole, on cells; also called mutant protein; β3 mutant
T1 sequence (looked up): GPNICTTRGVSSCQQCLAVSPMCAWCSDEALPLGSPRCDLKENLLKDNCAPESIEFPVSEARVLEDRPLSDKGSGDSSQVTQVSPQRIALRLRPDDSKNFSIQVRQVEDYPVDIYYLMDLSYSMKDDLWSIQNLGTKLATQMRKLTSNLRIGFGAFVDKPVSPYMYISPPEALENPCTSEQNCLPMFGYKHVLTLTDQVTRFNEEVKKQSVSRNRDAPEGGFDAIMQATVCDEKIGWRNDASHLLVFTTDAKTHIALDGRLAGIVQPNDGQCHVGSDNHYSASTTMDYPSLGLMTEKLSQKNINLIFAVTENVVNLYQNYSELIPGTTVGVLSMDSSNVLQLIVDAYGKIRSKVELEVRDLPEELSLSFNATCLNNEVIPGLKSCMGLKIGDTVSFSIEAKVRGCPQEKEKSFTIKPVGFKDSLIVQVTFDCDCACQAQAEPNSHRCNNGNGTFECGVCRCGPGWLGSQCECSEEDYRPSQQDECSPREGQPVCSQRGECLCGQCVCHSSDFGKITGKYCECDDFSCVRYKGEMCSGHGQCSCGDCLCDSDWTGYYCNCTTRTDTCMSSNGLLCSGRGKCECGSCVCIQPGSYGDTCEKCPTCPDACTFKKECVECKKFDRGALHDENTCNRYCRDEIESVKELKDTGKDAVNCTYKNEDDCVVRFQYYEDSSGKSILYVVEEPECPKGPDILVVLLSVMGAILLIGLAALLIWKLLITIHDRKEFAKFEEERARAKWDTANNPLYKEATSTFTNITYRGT

B1: heparin binding epidermal growth factor (ligand, UniProt Q99075 63-148, looked up)
chain: DLQEADLDLLRVTLSSKPQALATPNKEEHGKRKKKGKGLGKKRDPCLRKYKDFCIHGECKYVKELRAPSCICHPGYHGERCHGLSL
B2: connective tissue growth factor (ligand, UniProt P29279 27-349, looked up)
chain: QNCSGPCRCPDEPAPRCPAGVSLVLDGCGCCRVCAKQLGELCTERDPCDPHKGLFCHFGSPANRKIGVCTAKDGAPCIFGGTVYRSGESFQSSCKYQCTCLDGAVGCMPLCSMDVRLPSPDCPFPRRVKLPGKCCEEWVCDEPKDQTVVGPALAAYRLEDTFGPDPTMIRANCLVQTTEWSACSKTCGMGISTRVTNDNASCRLEKQSRLCMVRPCEADLEENIKKGKKCIRTPKISKPIKFELSGCTSMKTYRAKFCGVCTDGRCCTPHRTTTLPVEFKCPDGEVMKKNMMFIKTCACHYNCPGDNDIFESLYYRKMYGDMA
B3: osteopontin (ligand)
chain: not shown
B4: vitronectin (ligand, UniProt P04004 20-478, looked up)
chain: DQESCKGRCTEGFNVDKKCQCDELCSYYQSCCTDYTAECKPQVTRGDVFTMPEDEYTVYDDGEEKNNATVHEQVGGPSLTSDLQAQSKGNPEQTPVLKPEEEAPAPEVGASKPEGIDSRPETLHPGRPQPPAEEELCSGKPFDAFTDLKNGSLFAFRGQYCYELDEKAVRPGYPKLIRDVWGIEGPIDAAFTRINCQGKTYLFKGSQYWRFEDGVLDPDYPRNISDGFDGIPDNVDAALALPAHSYSGRERVYFFKGKQYWEYQFQHQPSQEECEGSSLSAVFEHFAMMQRDSWEDIFELLFWGRTSAGTRQPQFISRDWHGVPGQVDAAMAGRIYISGMAPRPSLAKKQRFRHRNRKGYRSQRGHSRGRNQNSRRPSRATWLSLFSSEESNLGANNYDDYRMDWLVPATCEPIQSVFFFSGDKYYRVNLRTRRVDTVDPPYPRSIAQYWLGCPAPGHL

Biological target: T1, β3 integrin mutant in which the …
Assay: binding assay on CHO cells expressing the mutant β3

Binding result, no binding:
B1
B2
B3
B4
